This data set deals with the molecule itself. Description: cross-linking; HEK293 cell homogenate supernatant (20 ug; 5 mM HEPES, 0.3 M sucrose, 10 mM DTT, pH 7.4) with glutaraldehyde (0.0025% or 260 umol/L) for 0-60 min; SDS-PAGE and Western blot with Ab^cMyc; monomer and tetramer bands by densitometry. (A western blot detects proteins with antibodies after separation by electrophoresis.)

What is called stoichiometry N is a count of units in the complex or per binding partner.

B1: NT^WT (human RyR2 residues 1-906, cMyc-tagged) (domain or fragment, UniProt Q92736 1-906, looked up)
chain: MADGGEGEDEIQFLRTDDEVVLQCTATIHKEQQKLCLAAEGFGNRLCFLESTSNSKNVPPDLSICTFVLEQSLSVRALQEMLANTVEKSEGQVDVEKWKFMMKTAQGGGHRTLLYGHAILLRHSYSGMYLCCLSTSRSSTDKLAFDVGLQEDTTGEACWWTIHPASKQRSEGEKVRVGDDLILVSVSSERYLHLSYGNGSLHVDAAFQQTLWSVAPISSGSEAAQGYLIGGDVLRLLHGHMDECLTVPSGEHGEEQRRTVHYEGGAVSVHARSLWRLETLRVAWSGSHIRWGQPFRLRHVTTGKYLSLMEDKNLLLMDKEKADVKSTAFTFRSSKEKLDVGVRKEVDGMGTSEIKYGDSVCYIQHVDTGLWLTYQSVDVKSVRMGSIQRKAIMHHEGHMDDGISLSRSQHEESRTARVIRSTVFLFNRFIRGLDALSKKAKASTVDLPIESVSLSLQDLIGYFHPPDEHLEHEDKQNRLRALKNRQNLFQEEGMINLVLECIDRLHVYSSAAHFADVAGREAGESWKSILNSLYELLAALIRGNRKNCAQFSGSLDWLISRLERLEASSGILEVLHCVLVESPEALNIIKEGHIKSIISLLDKHGRNHKVLDVLCSLCVCHGVAVRSNQHLICDNLLPGRDLLLQTRLVNHVSSMRPNIFLGVSEGSAQYKKWYYELMVDHTEPFVTAEATHLRVGWASTEGYSPYPGGGEEWGGNGVGDDLFSYGFDGLHLWSGCIARTVSSPNQHLLRTDDVISCCLDLSAPSISFRINGQPVQGMFENFNIDGLFFPVVSFSAGIKVRFLLGGRHGEFKFLPPPGYAPCYEAVLPKEKLKVEHSREYKQERTYTRDLLGPTVSLTQAAFTPIPVDTSQIVLPPHLERIREKLAENIHELWVMNKIELGWQYGP
notes: cardiac ryanodine receptor (RyR2), human, N-terminus residues 1-906; also called wild-type RyR2 N-terminus; RyR2-NT; source: HEK293, transiently transfected, in cell homogenate (cross-linking) or CHAPS-solubilized lysate (co-IP)
On to B1, for which the “stoichiometry N” value came to 4.

B2: NT^R169L (human RyR2 residues 1-906, cMyc-tagged, R169L) (domain or fragment, UniProt Q92736 1-906, looked up)
chain: MADGGEGEDEIQFLRTDDEVVLQCTATIHKEQQKLCLAAEGFGNRLCFLESTSNSKNVPPDLSICTFVLEQSLSVRALQEMLANTVEKSEGQVDVEKWKFMMKTAQGGGHRTLLYGHAILLRHSYSGMYLCCLSTSRSSTDKLAFDVGLQEDTTGEACWWTIHPASKQLSEGEKVRVGDDLILVSVSSERYLHLSYGNGSLHVDAAFQQTLWSVAPISSGSEAAQGYLIGGDVLRLLHGHMDECLTVPSGEHGEEQRRTVHYEGGAVSVHARSLWRLETLRVAWSGSHIRWGQPFRLRHVTTGKYLSLMEDKNLLLMDKEKADVKSTAFTFRSSKEKLDVGVRKEVDGMGTSEIKYGDSVCYIQHVDTGLWLTYQSVDVKSVRMGSIQRKAIMHHEGHMDDGISLSRSQHEESRTARVIRSTVFLFNRFIRGLDALSKKAKASTVDLPIESVSLSLQDLIGYFHPPDEHLEHEDKQNRLRALKNRQNLFQEEGMINLVLECIDRLHVYSSAAHFADVAGREAGESWKSILNSLYELLAALIRGNRKNCAQFSGSLDWLISRLERLEASSGILEVLHCVLVESPEALNIIKEGHIKSIISLLDKHGRNHKVLDVLCSLCVCHGVAVRSNQHLICDNLLPGRDLLLQTRLVNHVSSMRPNIFLGVSEGSAQYKKWYYELMVDHTEPFVTAEATHLRVGWASTEGYSPYPGGGEEWGGNGVGDDLFSYGFDGLHLWSGCIARTVSSPNQHLLRTDDVISCCLDLSAPSISFRINGQPVQGMFENFNIDGLFFPVVSFSAGIKVRFLLGGRHGEFKFLPPPGYAPCYEAVLPKEKLKVEHSREYKQERTYTRDLLGPTVSLTQAAFTPIPVDTSQIVLPPHLERIREKLAENIHELWVMNKIELGWQYGP
notes: cardiac ryanodine receptor (RyR2), human, N-terminus residues 1-906 with the CPVT mutation R169L; Mutation made by site-directed mutagenesis in the NT^WT plasmid; a variant reported in patients; also called type I variant; source: HEK293, transiently transfected, in cell homogenate (cross-linking) or CHAPS-solubilized lysate (co-IP)
Take B2: the “stoichiometry N” value is 4.

B3: NT^A77T (human RyR2 residues 1-906, cMyc-tagged, A77T) (domain or fragment, UniProt Q92736 1-906, looked up)
chain: MADGGEGEDEIQFLRTDDEVVLQCTATIHKEQQKLCLAAEGFGNRLCFLESTSNSKNVPPDLSICTFVLEQSLSVRTLQEMLANTVEKSEGQVDVEKWKFMMKTAQGGGHRTLLYGHAILLRHSYSGMYLCCLSTSRSSTDKLAFDVGLQEDTTGEACWWTIHPASKQRSEGEKVRVGDDLILVSVSSERYLHLSYGNGSLHVDAAFQQTLWSVAPISSGSEAAQGYLIGGDVLRLLHGHMDECLTVPSGEHGEEQRRTVHYEGGAVSVHARSLWRLETLRVAWSGSHIRWGQPFRLRHVTTGKYLSLMEDKNLLLMDKEKADVKSTAFTFRSSKEKLDVGVRKEVDGMGTSEIKYGDSVCYIQHVDTGLWLTYQSVDVKSVRMGSIQRKAIMHHEGHMDDGISLSRSQHEESRTARVIRSTVFLFNRFIRGLDALSKKAKASTVDLPIESVSLSLQDLIGYFHPPDEHLEHEDKQNRLRALKNRQNLFQEEGMINLVLECIDRLHVYSSAAHFADVAGREAGESWKSILNSLYELLAALIRGNRKNCAQFSGSLDWLISRLERLEASSGILEVLHCVLVESPEALNIIKEGHIKSIISLLDKHGRNHKVLDVLCSLCVCHGVAVRSNQHLICDNLLPGRDLLLQTRLVNHVSSMRPNIFLGVSEGSAQYKKWYYELMVDHTEPFVTAEATHLRVGWASTEGYSPYPGGGEEWGGNGVGDDLFSYGFDGLHLWSGCIARTVSSPNQHLLRTDDVISCCLDLSAPSISFRINGQPVQGMFENFNIDGLFFPVVSFSAGIKVRFLLGGRHGEFKFLPPPGYAPCYEAVLPKEKLKVEHSREYKQERTYTRDLLGPTVSLTQAAFTPIPVDTSQIVLPPHLERIREKLAENIHELWVMNKIELGWQYGP
notes: cardiac ryanodine receptor (RyR2), human, N-terminus residues 1-906 with the patient mutation A77T; Mutation made by site-directed mutagenesis in the NT^WT plasmid; a variant reported in patients; also called type II^inter variant; source: HEK293, transiently transfected, in cell homogenate (cross-linking) or CHAPS-solubilized lysate (co-IP)
On to B3, for which the “stoichiometry N” value is 4.

B4: NT^G357S (human RyR2 residues 1-906, cMyc-tagged, G357S) (domain or fragment, UniProt Q92736 1-906, looked up)
chain: MADGGEGEDEIQFLRTDDEVVLQCTATIHKEQQKLCLAAEGFGNRLCFLESTSNSKNVPPDLSICTFVLEQSLSVRALQEMLANTVEKSEGQVDVEKWKFMMKTAQGGGHRTLLYGHAILLRHSYSGMYLCCLSTSRSSTDKLAFDVGLQEDTTGEACWWTIHPASKQRSEGEKVRVGDDLILVSVSSERYLHLSYGNGSLHVDAAFQQTLWSVAPISSGSEAAQGYLIGGDVLRLLHGHMDECLTVPSGEHGEEQRRTVHYEGGAVSVHARSLWRLETLRVAWSGSHIRWGQPFRLRHVTTGKYLSLMEDKNLLLMDKEKADVKSTAFTFRSSKEKLDVGVRKEVDGMGTSEIKYSDSVCYIQHVDTGLWLTYQSVDVKSVRMGSIQRKAIMHHEGHMDDGISLSRSQHEESRTARVIRSTVFLFNRFIRGLDALSKKAKASTVDLPIESVSLSLQDLIGYFHPPDEHLEHEDKQNRLRALKNRQNLFQEEGMINLVLECIDRLHVYSSAAHFADVAGREAGESWKSILNSLYELLAALIRGNRKNCAQFSGSLDWLISRLERLEASSGILEVLHCVLVESPEALNIIKEGHIKSIISLLDKHGRNHKVLDVLCSLCVCHGVAVRSNQHLICDNLLPGRDLLLQTRLVNHVSSMRPNIFLGVSEGSAQYKKWYYELMVDHTEPFVTAEATHLRVGWASTEGYSPYPGGGEEWGGNGVGDDLFSYGFDGLHLWSGCIARTVSSPNQHLLRTDDVISCCLDLSAPSISFRINGQPVQGMFENFNIDGLFFPVVSFSAGIKVRFLLGGRHGEFKFLPPPGYAPCYEAVLPKEKLKVEHSREYKQERTYTRDLLGPTVSLTQAAFTPIPVDTSQIVLPPHLERIREKLAENIHELWVMNKIELGWQYGP
notes: cardiac ryanodine receptor (RyR2), human, N-terminus residues 1-906 with the CPVT mutation G357S; Mutation made by site-directed mutagenesis in the NT^WT plasmid; a variant reported in patients; also called type II^intra variant; source: HEK293, transiently transfected, in cell homogenate (cross-linking) or CHAPS-solubilized lysate (co-IP)
On to B4, for which the “stoichiometry N” value is 4.

(Values after article PMC11703740, “Disparate molecular mechanisms in cardiac ryanodine receptor channelopathies” (Frontiers in Molecular Biosciences, 2024).)
